Target: Taxol-stabilized microtubules polymerised from purified bovine brain tubulin (bovine) (UniProt Q6B856)
Assay: co-sedimentation

Kd: 160 nM
B1: His-MBP-ENKD1 (maltose-binding protein fusion of full-length human Enkurin domain containing 1) (natural protein)
chain: MCEGPSRISGPIPPDPTLCPDNYRRPTSAQGRLEGNALKLDLLTSDRALDTTAPRGPCIGPGAGEILERGQRGVGDVLLQLEGISLGPGASLKRKDPKDHEKENLRRIREIQKRFREQERSREQGQPRPLKALWRSPKYDKVESRVKAQLQEPGPASGTESAHFLRAHSRCGPGLPPPHVSSPQPTPPGPEAKEPGLGVDFIRHNARAAKRAPRRHSCSLQVLAQVLEQQRQAQEHYNATQKGHVPHYLLERRDLWRREAEARKQSQPDPAMPPGHTRMPENQRLETLTKLLQSQSQLLRELVLLPAGADSLRAQSHRAELDRKLVQVEEAIKIFSRPKVFVKMDD
